For the assay, the target named is recombinant hemagglutinin (HA) (A/New Caledonia/20/99; Protein Sciences) (influenza A virus A/New Caledonia/20/99 (H1N1)).

As usually defined, the Kd is a measure of binding affinity in units of concentration.

For “plant-produced anti-influenza bnMAb CR6261 IgG1 (expressed in N. benthamiana) (antibody)”, the Kd is 0.055 nM.

(Values after US20150368661A1.)
